Results on 1 substance are retold here after PMC3077374.

Among the targets are human IgA (human); human IgG (human); human IgM (human).
What all share (experiment): SPR; Biacore 3000; hIgG, hIgM or hIgA amine-coupled to CM-5 chips (10 mM sodium acetate, pH 5.0, 4.5 or 4.0); LD5 or SpA as analyte in serial 1:2 dilutions from 1.25 and 0.8 uM; flow 40 ul/min; NaCl/HEPES with 0.005% surfactant P20; regeneration 100 mM alanine-HCl pH 2.5
On the technique in general: In SPR one partner is held on a chip, and binding of the other changes the refractive index at the surface.

As for “staphylococcal protein A (SpA) (from UniProt P02976 37-485) (natural protein)”, in the test with human IgA (human), the dissociation constant Kd (as a rule, the equilibrium constant for the complex coming apart) turned out to be 7.03 nM; the koff – broadly, the rate constant with which the complex falls apart – came out at 0.00292 s⁻¹; the on-rate (kon) (as a rule, a measure of how fast the partners come together) came out at 416000 M⁻¹ s⁻¹. In the test with human IgG (human), the Ka came out at 3.45e+09 M⁻¹, the Kd was found to be 0.29 nM, the koff was determined as 4.4e-05 s⁻¹ and the kon was found to be 154000 M⁻¹ s⁻¹. In the test with human IgM (human), this substance gave a Kd of 7.15 nM, an off-rate (koff) of 0.000817 s⁻¹ and a kon of 115000 M⁻¹ s⁻¹.
